T1: hFcgRIIb (human, UniProt P31994 43-217)
T1 construct: extracellular domain; also called human FcγRIIb
T1 sequence (looked up): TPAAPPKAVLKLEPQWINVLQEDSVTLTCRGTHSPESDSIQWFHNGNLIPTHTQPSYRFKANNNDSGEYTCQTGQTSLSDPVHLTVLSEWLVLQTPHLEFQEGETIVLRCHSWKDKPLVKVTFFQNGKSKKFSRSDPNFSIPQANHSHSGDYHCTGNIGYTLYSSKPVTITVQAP

T2: hFcgRIIaR (human, UniProt P12318 34-217)
T2 construct: extracellular domain; also called human FcγRIIa type R (R131)
T2 sequence (looked up): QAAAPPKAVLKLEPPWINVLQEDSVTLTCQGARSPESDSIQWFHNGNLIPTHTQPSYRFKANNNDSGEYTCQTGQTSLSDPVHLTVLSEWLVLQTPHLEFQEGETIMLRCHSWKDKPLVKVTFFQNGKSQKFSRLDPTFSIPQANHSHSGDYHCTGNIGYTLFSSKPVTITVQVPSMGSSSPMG

T3: hFcgRIIaH (human, UniProt P12318 34-217)
T3 construct: extracellular domain; also called human FcγRIIa type H (H131)
T3 sequence (looked up): T2 sequence (looked up) with R134H

B1: A375-G1T3/B167-Lamlib (antibody, human IgG1, lambda)
heavy: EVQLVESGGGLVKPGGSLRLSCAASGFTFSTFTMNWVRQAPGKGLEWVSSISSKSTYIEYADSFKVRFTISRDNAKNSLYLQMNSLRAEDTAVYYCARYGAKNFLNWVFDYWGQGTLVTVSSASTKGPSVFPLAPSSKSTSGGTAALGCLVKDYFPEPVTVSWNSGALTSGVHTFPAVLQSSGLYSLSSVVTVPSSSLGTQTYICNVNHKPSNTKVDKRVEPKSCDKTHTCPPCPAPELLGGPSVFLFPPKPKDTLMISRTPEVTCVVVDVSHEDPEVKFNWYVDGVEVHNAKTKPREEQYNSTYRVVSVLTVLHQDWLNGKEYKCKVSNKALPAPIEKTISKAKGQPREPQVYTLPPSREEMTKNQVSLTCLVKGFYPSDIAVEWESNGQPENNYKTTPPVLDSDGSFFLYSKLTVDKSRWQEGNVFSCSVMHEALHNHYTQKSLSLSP
light: QSALTQPPSASGSPGQTVTISCTGTRYDVGYYEYVSWYQQHPGKAPKLMIYETSKRLSGVPDRFSGSKSGNTASLTVSGLQAEDEADYYCSSYRYEHQVSFGGGTKLTVLGQPKAAPSVTLFPPSSEELQANKATLVCLISDFYPGAVTVAWKADSSPVKAGVETTTPSKQSNNKYAASSYLSLTPEQWKSHRSYSCQVTHEGSTVEKTVAPTECS
notes: copies: 2 + 2
B2: A375-MY201a/B167-Lamlib (antibody, human IgG1, lambda)
heavy: EVQLVESGGGLVKPGGSLRLSCAASGFTFSTFTMNWVRQAPGKGLEWVSSISSKSTYIEYADSFKVRFTISRDNAKNSLYLQMNSLRAEDTAVYYCARYGAKNFLNWVFDYWGQGTLVTVSSASTKGPSVFPLAPSSKSTSGGTAALGCLVKDYFPEPVTVSWNSGALTSGVHTFPAVLQSSGLYSLSSVVTVPSSSLGTQTYICNVNHKPSNTKVDKRVEPKSCDKTHTCPPCPAPELLNGPSVFLFPPKPKDTLMISRTPEVTCVVVDVSDEDPEVKFNWYVDGVEVHNAKTKPREEQYNSTYRVVSVLTVLHQDWLNGKEYKCKVSNKALPKPIEKTISKAKGQPREPQVYTLPPSREEMTKNQVSLTCLVKGFYPSDIAVEWESNGQPENNYKTTPPVLDSDGSFFLYSKLTVDKSRWQQGNVFSCSVMHEALHNHYTQKSLSLSP
light: B1 light
notes: copies: 2 + 2
B3: A375-MY518a/B167-Lamlib (antibody, human IgG1, lambda)
heavy: B2 heavy with L240W, Q300L, K331T
light: B1 light
notes: copies: 2 + 2
B4: A375-P253/B167-Lamlib (antibody, human IgG1, lambda)
heavy: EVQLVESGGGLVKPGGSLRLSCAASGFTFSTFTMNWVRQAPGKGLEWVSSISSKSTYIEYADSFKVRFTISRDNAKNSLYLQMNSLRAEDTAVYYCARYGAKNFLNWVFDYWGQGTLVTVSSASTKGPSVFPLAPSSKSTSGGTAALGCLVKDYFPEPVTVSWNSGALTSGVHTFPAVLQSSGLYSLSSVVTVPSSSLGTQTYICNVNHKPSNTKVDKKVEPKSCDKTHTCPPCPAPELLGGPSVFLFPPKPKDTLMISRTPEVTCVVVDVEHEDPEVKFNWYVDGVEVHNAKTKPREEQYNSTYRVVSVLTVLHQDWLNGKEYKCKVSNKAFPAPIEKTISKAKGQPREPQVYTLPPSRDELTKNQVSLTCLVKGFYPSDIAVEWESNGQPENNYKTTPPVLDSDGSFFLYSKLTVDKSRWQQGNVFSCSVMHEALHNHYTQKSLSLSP
light: B1 light
notes: copies: 2 + 2
B5: A375-TT11/B167-Lamlib (antibody, human IgG1, lambda)
heavy: B2 heavy with R219K, L239Y, N241G, P243D, T255V, D273H, T312P
light: B1 light
notes: copies: 2 + 2
B6: A375-MY201aPh/B167-Lamlib (antibody, human IgG1, lambda)
heavy: B2 heavy with L240W
light: B1 light
notes: copies: 2 + 2
B7: A375-MY518/B167-Lamlib (antibody, human IgG1, lambda)
heavy: B2 heavy with R219K, L240W, Q300L, K331T
light: B1 light
notes: copies: 2 + 2

Positions count from the first letter of the chain named.

From patent publication US20210324099A1 (Chugai, published 2021) come the findings set out here.

Usually Kd stands for a measure of binding affinity in units of concentration. A high value points to lower affinity.
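For binding per 1RU of antibody in this document: biacore SPR with antibody captured on an anti-human Fab lambda chip, human FcγR injected at 1000 nM (FcγRIa at 8 nM) in pH 7.4 phosphate buffer.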

T4 sequence (P08637 17-208 F176V): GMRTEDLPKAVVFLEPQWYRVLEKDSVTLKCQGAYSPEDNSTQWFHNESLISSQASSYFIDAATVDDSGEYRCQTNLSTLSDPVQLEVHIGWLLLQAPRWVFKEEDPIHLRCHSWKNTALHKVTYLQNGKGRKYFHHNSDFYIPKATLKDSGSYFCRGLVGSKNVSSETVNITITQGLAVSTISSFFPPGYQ

One assay concerns the target T4, hFcgRIIIaV (human, UniProt P08637 17-208).
T4 construct: extracellular domain; also called human FcγRIIIa allotype V158
Nature of the assay: SPR 25C; relative to A375-G1T3/B167-Lamlib.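 Also: SPR with antibody captured on an anti-human Fab-lambda chip, human FcγR analyte at 8 nM for FcγRIa or 1000 nM for the others, pH 7.4, FcγR RU per captured antibody unit.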
The molecule B1 registered a relative binding amount of 1.

As for B2, the relative binding amount is 0.03.

B3: the relative binding amount is 0.01.

B4 had a relative binding amount of 0.03.

B5 yielded a relative binding amount of -0.01.

On to B6, for which the relative binding amount came out at 0.02.

B7 registered a relative binding amount of 0.02.

In the next assay the target is T5, hFcgRIa (human, UniProt P12314 16-292).
T5 construct: extracellular domain; also called human FcγRIa; FcγRI
T5 sequence (P12314 16-292): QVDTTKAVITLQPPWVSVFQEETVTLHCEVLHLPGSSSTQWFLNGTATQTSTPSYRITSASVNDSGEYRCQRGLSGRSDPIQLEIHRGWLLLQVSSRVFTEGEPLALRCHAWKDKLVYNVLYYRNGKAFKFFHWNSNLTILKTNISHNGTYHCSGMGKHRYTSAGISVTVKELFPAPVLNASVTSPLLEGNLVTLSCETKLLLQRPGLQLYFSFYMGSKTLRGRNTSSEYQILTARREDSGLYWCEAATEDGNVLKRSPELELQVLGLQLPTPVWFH
In words: SPR 25C; relative to A375-G1T3/B167-Lamlib.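 Also: SPR with antibody captured on an anti-human Fab-lambda chip, human FcγR analyte at 8 nM for FcγRIa or 1000 nM for the others, pH 7.4, FcγR RU per captured antibody unit.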
For the molecule B1, the relative binding amount turned out to be 1.

B2 showed a relative binding amount of 0.49.

As for B3, the relative binding amount stood at 0.04.

Take B4: the relative binding amount amounted to 1.15.

Molecule B6 came in with a relative binding amount of 0.05.

B7 showed a relative binding amount of 0.02.

The next assay has as its target T1, hFcgRIIb. Nature of the assay: SPR 25C; relative to A375-G1T3/B167-Lamlib.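 Also: SPR with antibody captured on an anti-human Fab-lambda chip, human FcγR analyte at 8 nM for FcγRIa or 1000 nM for the others, pH 7.4, FcγR RU per captured antibody unit.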
Turning to B1, the relative binding amount was 1.

Molecule B2 returned a relative binding amount of 3.66.

B3: the relative binding amount came to 4.46.

On to B4, for which the relative binding amount came out at 14.3.

For the molecule B5, the relative binding amount was found to be 4.35.

Consider B6, for which the relative binding amount was determined as 2.85.

On to B7, for which the relative binding amount came to 4.4.

In another assay the target is T2, hFcgRIIaR. In words: SPR 25C; relative to A375-G1T3/B167-Lamlib.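 Also: SPR with antibody captured on an anti-human Fab-lambda chip, human FcγR analyte at 8 nM for FcγRIa or 1000 nM for the others, pH 7.4, FcγR RU per captured antibody unit.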
For the molecule B1, the relative binding amount worked out at 1.

In the case of B2, the relative binding amount worked out at 0.73.

Regarding B3, the relative binding amount was 1.01.

As for B4, the relative binding amount was 3.62.

As to B6, the relative binding amount was 0.72.

The molecule B7 yielded a relative binding amount of 0.99.

In a further assay the target is T3, hFcgRIIaH. Nature of the assay: SPR 25C; relative to A375-G1T3/B167-Lamlib.
B1 had a relative binding amount of 1.

The molecule B2 came in with a relative binding amount of 0.94.

Turning to B3, the relative binding amount was 0.84.

As to B4, the relative binding amount turned out to be 0.88.

As to B5, the relative binding amount was determined as 0.03.

In turn, B6 showed a relative binding amount of 0.58.

In turn, B7 had a relative binding amount of 0.82.

The target in a further assay is T6, hFcgRIIIaF (human, UniProt P08637 17-208).
T6 construct: extracellular domain; also called human FcγRIIIa allotype F158
T6 sequence (P08637 17-208): as the sequence (P08637 17-208 F176V) above, with V160F counted along it
In words: SPR 25C; relative to A375-G1T3/B167-Lamlib.
In turn, B1 came in with a relative binding amount of 1.

The molecule B2 had a relative binding amount of 0.04.

Molecule B3 returned a relative binding amount of 0.03.

The molecule B4 returned a relative binding amount of 0.26.

B5 returned a relative binding amount of -0.04.

B6 showed a relative binding amount of 0.03.

B7: the relative binding amount came to 0.04.

The target in another assay is human FcRn (human, UniProt P55899 24-290; P61769 21-119, limits assumed). Nature of the assay: SPR 25C pH 6.0, steady state.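 Also: antibody captured on chip via anti-human Fab-lambda ligand, human FcRn injected as analyte in 50 mM phosphate buffer with 150 mM NaCl and P20.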
Chain of human FcRn (P55899 24-290 limits assumed, chain 1 of 2): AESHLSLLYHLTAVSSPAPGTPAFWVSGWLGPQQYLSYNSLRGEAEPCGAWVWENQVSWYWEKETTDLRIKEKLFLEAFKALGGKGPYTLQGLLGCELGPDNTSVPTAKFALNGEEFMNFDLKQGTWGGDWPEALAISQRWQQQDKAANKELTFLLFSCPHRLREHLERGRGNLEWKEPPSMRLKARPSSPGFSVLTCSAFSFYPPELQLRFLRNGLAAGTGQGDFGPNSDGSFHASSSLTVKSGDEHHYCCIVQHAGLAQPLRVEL
Chain of human FcRn (P61769 21-119 limits assumed, chain 2 of 2): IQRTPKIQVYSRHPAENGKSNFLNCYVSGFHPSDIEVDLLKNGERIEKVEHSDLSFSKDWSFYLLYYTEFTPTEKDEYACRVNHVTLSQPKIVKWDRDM
B1 came in with an equilibrium dissociation constant (Kd) of 1270 nM.

In turn, B2 yielded a Kd of 1190 nM.

B3 came in with an equilibrium dissociation constant (Kd) of 1320 nM.

Consider B4, for which the Kd stood at 1420 nM.

B5 yielded a Kd of 1560 nM.

Molecule B6 had a Kd of 1180 nM.

In turn, B7 had a Kd of 1270 nM.

For another assay, the target named is T4, hFcgRIIIaV. In words: SPR 25C.
Procedure: (§1) Biacore T200 (GE Healthcare) was used to evaluate the binding activity to the respective human Fcγ receptor (hereafter referred to as FcγR). Measurement was performed at 25° C. using 50 mM phosphate, 150 mM NaCl, 0.05 w/v %-P20, pH 7.4 as buffer. About 1000 RU of antibody was captured using a sensor chip immobilized with CaptureSelect™ Human Fab-lambda Kinetics Biotin Conjugate (Thermo Fisher Scientific) as a molecule for ligand capturing. Human FcγR was diluted to 8 nM for FcγRIa and 1000 nM for other FcγR in the measurement buffer, and it was interacted to the captured antibody. The binding activity of each antibody to FcγR was assessed by calculating the binding amount of FcγR (RU) per unit amount of antibody using Biacore T200 Evaluation Software 2.0.
As to B1, the “binding per 1RU of antibody” value is 0.07 RU.

With B2, the “binding per 1RU of antibody” value was found to be 0.0024 RU.

On to B3, for which the “binding per 1RU of antibody” value stood at 0.0009 RU.

On to B4, for which the “binding per 1RU of antibody” value stood at 0.0019 RU.

In the case of B5, the “binding per 1RU of antibody” value was -0.001 RU.

Take B6: the “binding per 1RU of antibody” value amounted to 0.0011 RU.

On to B7, for which the “binding per 1RU of antibody” value was determined as 0.0015 RU.

The target of the next assay is T5, hFcgRIa. In words: SPR 25C.
Procedure: as §1
In the case of B1, the “binding per 1RU of antibody” value turned out to be 0.0813 RU.

With B2, the “binding per 1RU of antibody” value worked out at 0.0396 RU.

Turning to B3, the “binding per 1RU of antibody” value came out at 0.0033 RU.

With B4, the “binding per 1RU of antibody” value amounted to 0.0937 RU.

Consider B6, for which the “binding per 1RU of antibody” value was 0.004 RU.

On to B7, for which the “binding per 1RU of antibody” value was 0.002 RU.

For another assay, the target named is T1, hFcgRIIb. Nature of the assay: SPR 25C.
Procedure: as §1
As to B1, the “binding per 1RU of antibody” value turned out to be 0.011 RU.

As to B2, the “binding per 1RU of antibody” value was found to be 0.0401 RU.

B3: the “binding per 1RU of antibody” value turned out to be 0.0489 RU.

B4: the “binding per 1RU of antibody” value stood at 0.156 RU.

Turning to B5, the “binding per 1RU of antibody” value is 0.0477 RU.

On to B6, for which the “binding per 1RU of antibody” value came out at 0.0313 RU.

Consider B7, for which the “binding per 1RU of antibody” value stood at 0.0482 RU.

A further assay has as its target T2, hFcgRIIaR. In words: SPR 25C.
Procedure: as §1
As for B1, the “binding per 1RU of antibody” value stood at 0.0463 RU.

With B2, the “binding per 1RU of antibody” value was determined as 0.0338 RU.

As to B3, the “binding per 1RU of antibody” value is 0.047 RU.

Turning to B4, the “binding per 1RU of antibody” value was 0.168 RU.

B6: the “binding per 1RU of antibody” value came out at 0.0335 RU.

With B7, the “binding per 1RU of antibody” value was 0.046 RU.

A further assay deals with T3, hFcgRIIaH. In words: SPR 25C.
Procedure: as §1
Regarding B1, the “binding per 1RU of antibody” value worked out at 0.0567 RU.

Turning to B2, the “binding per 1RU of antibody” value stood at 0.0534 RU.

For the molecule B3, the “binding per 1RU of antibody” value came out at 0.0479 RU.

Take B4: the “binding per 1RU of antibody” value worked out at 0.0497 RU.

For the molecule B5, the “binding per 1RU of antibody” value was found to be 0.002 RU.

Consider B6, for which the “binding per 1RU of antibody” value came out at 0.0328 RU.

Regarding B7, the “binding per 1RU of antibody” value came out at 0.0466 RU.

Another assay concerns the target T6, hFcgRIIIaF. In words: SPR 25C.
Procedure: as §1
B1: the “binding per 1RU of antibody” value came to 0.0213 RU.

With B2, the “binding per 1RU of antibody” value amounted to 0.0007 RU.

Regarding B3, the “binding per 1RU of antibody” value worked out at 0.0006 RU.

As to B4, the “binding per 1RU of antibody” value was determined as 0.0056 RU.

On to B5, for which the “binding per 1RU of antibody” value is -0.0009 RU.

In the case of B6, the “binding per 1RU of antibody” value is 0.0007 RU.

As for B7, the “binding per 1RU of antibody” value stood at 0.0009 RU.
